Measured values from US20240083991A1.

Experiments:
[1] = molecular target: human mature BMP9 (human) (UniProt Q9UK05); experiment: competition ELISA: antibody mixed with 0.2 nM BMP9-biotin, binding to coated ALK1 (1 µg/ml) detected
[2] = molecular target: human mature BMP9 (human) (UniProt Q9UK05); experiment: competition ELISA: antibody mixed with 0.5 nM BMP9-biotin, binding to coated ALK1 (1 µg/ml) detected
[3] = molecular target: human mature BMP9 (human) (UniProt Q9UK05); experiment: competition ELISA: antibody mixed with 5 nM BMP9-biotin, binding to coated ActRIIA (5 µg/ml) detected
[4] = molecular target: human mature BMP9 (human) (UniProt Q9UK05); experiment: competition ELISA: antibody mixed with 0.6 nM BMP9-biotin, binding to coated BMPRII (1 µg/ml) detected
[5] = molecular target: human mature BMP9 (human) (UniProt Q9UK05); experiment: competition ELISA: antibody mixed with 15 nM BMP9-biotin, binding to coated ActRIIB (5 µg/ml) detected
[6] = molecular target: human mature BMP9 (human) (UniProt Q9UK05); experiment: competition ELISA: antibody mixed with 1.5 nM BMP9-biotin, binding to coated BMPRII (2 µg/ml) detected

Chain of human mature BMP9 (human) (Q9UK05 320-429): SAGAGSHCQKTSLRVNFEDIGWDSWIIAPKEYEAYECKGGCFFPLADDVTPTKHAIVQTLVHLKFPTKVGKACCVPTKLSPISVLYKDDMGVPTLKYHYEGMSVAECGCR

Row | IC50 (read off the curve) [1] [nM] | IC50 (read off the curve) [2] [nM] | IC50 (read off the curve) [3] [nM] | IC50 (read off the curve) [4] [nM] | IC50 (read off the curve) [5] [nM] | IC50 (read off the curve) [6] [nM] | Binder
1 | 0.06 | 0.1 |  |  |  |  | BM02 (antibody, from another filing, V domains shown) VH: QVQLVQSGAEVKKPGASVKVSCKASGYTFRSYNMHWVRQAPGQGLEWMGLIYPGNAVTSYSQKFKDRVTMTVDKSTSTAYMELSSLRSEDTAVYYCAKDDYFRGGSYAMDYWGQGTTVTVSS VL: EIVLTQSPDFQSVTPKEKVTITCRASQSIRNNLHWYQQKPDQSPKLLIKYASQSIRGVPSRFSGSGSGTDFTLTINSLEAEDAATYYCQQSHSWPYTFGGGTKVEIKR
2 |  |  | 2 | 0.1 | 8 | 2 | BM01 (antibody, from another filing, V domains shown) VH: QVQLVQSGAEVKKPGASVKVSCKASGYTFTRYWMHWVRQAPGQGLEWMGEINPSQGGTNYNEKFKSRVTMTVDKSISTAYMELSRLRSDDTAVYYCAIGSNYGGLVYWGQGTLVTVSS VL: EIVLTQSPATLSLSPGERATLSCRASESLDNYGISFMNWFQQKPGQAPRFLIYAASNQGSGIPARFSGSGSGTDFTLTISSLQPEDTAVYFCQQSKEVPRTFGGGTKVEIKR
